Measurements from patent publication US20260166084A1 (INSTITUTE OF CANCER RESEARCH ROYAL CANCER HOSPITAL, published 2026).

Assays:
[1] = target: T1, complex formed between CRBN/DDB1 and iberdomide (UniProt Q96SW2 1-442; Q16531 2-1140, limits assumed); assay: TR-FRET displacement of Sulfo-Cy5 Aiolos peptide probe from CRBN/DDB1 with 10 uM iberdomide. The figure is told overall for the three IMiDs.
T1 construct: mature; also called CRBN/DDB1 in the presence of iberdomide; CRBN/DDB1 with CC-220
Procedure: (§1) All TR-FRET assays were ran in Black 384-well ProxiPlate Plus (Perkin-Elmer, USA), in a buffer containing 20 mM HEPES pH 8.0, 150 mM NaCl, 0.5 mM TCEP, 0.05% Tween 20 and 0.05% BSA, with a final assay volume of 10 μL. An Echo E550 (Beckman Coulter, USA) acoustic liquid dispenser was used to create final concentration ranges from 82 μM down to 2.05 nM for iTAG1 and 27 μM down to 0.68 nM for iTAG2. […] Finally, IMiDs were added to a final concentration of 10 μM with the Echo. Plates were sealed, centrifuged at 200 g for 1 min and stored overnight at 4° C. The TR-FRET signals were read using a PHERAstar FSX plate reader (BMG Labtech, Germany).

[2] = target: T2, CRBN/DDB1 protein complex (no IMiD) (UniProt Q96SW2 1-442; Q16531 1-1140, limits assumed); assay: size exclusion chromatography (Superose 6) with SDS-PAGE of fractions, no iberdomide
T2 construct: As used in the SEC sample without iberdomide; also called CRBN/DDB1 complex
Procedure: Purified CRBN/DDB1 protein complex and iTAG2 protein were mixed together and subjected to SEC in the presence or absence of iberdomide, shown in FIG. 14.
100 μM iberdomide was included in one of the samples and both were incubated on ice for 1 hour, then centrifuged at 21000 g for 10 minutes prior to injection to remove potential aggregates. The Superose 6 column was pre-equilibrated in the same buffer (20 mM HEPES pH 7.0, 200 mM NaCl and 1 mM TCEP) at a flow rate of 0.25 mL/min before injection of 50 μL of each sample.

[3] = target: T3, complex formed between CRBN/DDB1 and lenalidomide (UniProt Q96SW2 1-442; Q16531 2-1140, limits assumed); assay: TR-FRET displacement of Sulfo-Cy5 Aiolos peptide probe from CRBN/DDB1 with 10 uM lenalidomide. The figure is told overall for the three IMiDs.
T3 construct: mature; Same proteins as m3 with 10 uM lenalidomide. 'mature' stands for the printed 'WT full length'; also called CRBN/DDB1 in the presence of lenalidomide
Procedure: as §1

[4] = target: T4, complex formed between CRBN/DDB1 and pomalidomide (UniProt Q96SW2 1-442; Q16531 2-1140, limits assumed); assay: TR-FRET displacement of Sulfo-Cy5 Aiolos peptide probe from CRBN/DDB1 with 10 uM pomalidomide. The figure is told overall for the three IMiDs.
T4 construct: mature; Same proteins as m3 with 10 uM pomalidomide. 'mature' stands for the printed 'WT full length'; also called CRBN/DDB1 in the presence of pomalidomide
Procedure: as §1

T1 sequence (Q96SW2 whole entry, chain 1 of 2): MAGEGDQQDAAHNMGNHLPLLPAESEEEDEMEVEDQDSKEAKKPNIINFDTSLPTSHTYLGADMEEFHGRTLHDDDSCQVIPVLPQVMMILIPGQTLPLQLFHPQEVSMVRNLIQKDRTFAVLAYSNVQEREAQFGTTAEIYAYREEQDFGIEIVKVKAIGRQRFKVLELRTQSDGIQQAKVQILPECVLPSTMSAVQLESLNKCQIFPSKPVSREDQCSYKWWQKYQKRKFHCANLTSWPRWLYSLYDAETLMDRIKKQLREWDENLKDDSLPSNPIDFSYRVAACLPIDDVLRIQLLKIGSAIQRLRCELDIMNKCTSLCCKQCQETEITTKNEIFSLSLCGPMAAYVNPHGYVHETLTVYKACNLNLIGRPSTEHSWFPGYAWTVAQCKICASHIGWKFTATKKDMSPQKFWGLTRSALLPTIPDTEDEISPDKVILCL
T1 sequence (Q16531 2-1140 limits assumed, chain 2 of 2): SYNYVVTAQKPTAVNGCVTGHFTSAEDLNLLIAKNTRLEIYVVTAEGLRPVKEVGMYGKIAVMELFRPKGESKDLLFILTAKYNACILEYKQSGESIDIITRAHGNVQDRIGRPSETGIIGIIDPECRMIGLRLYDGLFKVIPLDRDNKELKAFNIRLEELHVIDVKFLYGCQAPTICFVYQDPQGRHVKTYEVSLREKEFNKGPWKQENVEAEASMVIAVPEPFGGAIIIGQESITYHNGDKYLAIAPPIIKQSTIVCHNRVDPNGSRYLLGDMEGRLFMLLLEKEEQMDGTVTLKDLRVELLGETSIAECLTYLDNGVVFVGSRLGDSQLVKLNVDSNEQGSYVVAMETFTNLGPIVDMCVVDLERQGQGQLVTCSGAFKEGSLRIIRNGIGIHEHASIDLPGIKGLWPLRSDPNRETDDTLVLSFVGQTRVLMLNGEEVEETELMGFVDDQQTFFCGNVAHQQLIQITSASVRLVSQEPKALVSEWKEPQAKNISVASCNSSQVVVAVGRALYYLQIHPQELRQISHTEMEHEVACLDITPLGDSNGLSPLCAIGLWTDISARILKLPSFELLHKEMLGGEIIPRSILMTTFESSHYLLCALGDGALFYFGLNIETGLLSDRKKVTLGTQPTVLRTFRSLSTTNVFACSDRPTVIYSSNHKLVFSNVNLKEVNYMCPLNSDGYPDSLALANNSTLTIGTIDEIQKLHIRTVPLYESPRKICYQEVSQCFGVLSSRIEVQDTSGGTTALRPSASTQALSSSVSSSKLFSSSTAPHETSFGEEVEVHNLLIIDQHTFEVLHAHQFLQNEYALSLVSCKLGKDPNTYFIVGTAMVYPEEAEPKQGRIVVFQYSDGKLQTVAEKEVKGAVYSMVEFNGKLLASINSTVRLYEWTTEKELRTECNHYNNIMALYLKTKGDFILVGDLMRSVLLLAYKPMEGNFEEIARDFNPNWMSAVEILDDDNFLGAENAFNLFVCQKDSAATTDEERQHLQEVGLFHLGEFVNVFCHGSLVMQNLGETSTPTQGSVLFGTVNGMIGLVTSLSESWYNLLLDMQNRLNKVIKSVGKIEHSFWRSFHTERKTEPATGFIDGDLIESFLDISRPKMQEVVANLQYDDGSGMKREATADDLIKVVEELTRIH
T4 sequence (Q96SW2 whole entry, chain 1 of 2): as the sequence (Q96SW2 whole entry, chain 1 of 2) above
T4 sequence (Q16531 2-1140 limits assumed, chain 2 of 2): as the sequence (Q16531 2-1140 limits assumed, chain 2 of 2) above
T2 sequence (Q96SW2 whole entry, chain 1 of 2): as the sequence (Q96SW2 whole entry, chain 1 of 2) above
T2 sequence (Q16531 whole entry, chain 2 of 2): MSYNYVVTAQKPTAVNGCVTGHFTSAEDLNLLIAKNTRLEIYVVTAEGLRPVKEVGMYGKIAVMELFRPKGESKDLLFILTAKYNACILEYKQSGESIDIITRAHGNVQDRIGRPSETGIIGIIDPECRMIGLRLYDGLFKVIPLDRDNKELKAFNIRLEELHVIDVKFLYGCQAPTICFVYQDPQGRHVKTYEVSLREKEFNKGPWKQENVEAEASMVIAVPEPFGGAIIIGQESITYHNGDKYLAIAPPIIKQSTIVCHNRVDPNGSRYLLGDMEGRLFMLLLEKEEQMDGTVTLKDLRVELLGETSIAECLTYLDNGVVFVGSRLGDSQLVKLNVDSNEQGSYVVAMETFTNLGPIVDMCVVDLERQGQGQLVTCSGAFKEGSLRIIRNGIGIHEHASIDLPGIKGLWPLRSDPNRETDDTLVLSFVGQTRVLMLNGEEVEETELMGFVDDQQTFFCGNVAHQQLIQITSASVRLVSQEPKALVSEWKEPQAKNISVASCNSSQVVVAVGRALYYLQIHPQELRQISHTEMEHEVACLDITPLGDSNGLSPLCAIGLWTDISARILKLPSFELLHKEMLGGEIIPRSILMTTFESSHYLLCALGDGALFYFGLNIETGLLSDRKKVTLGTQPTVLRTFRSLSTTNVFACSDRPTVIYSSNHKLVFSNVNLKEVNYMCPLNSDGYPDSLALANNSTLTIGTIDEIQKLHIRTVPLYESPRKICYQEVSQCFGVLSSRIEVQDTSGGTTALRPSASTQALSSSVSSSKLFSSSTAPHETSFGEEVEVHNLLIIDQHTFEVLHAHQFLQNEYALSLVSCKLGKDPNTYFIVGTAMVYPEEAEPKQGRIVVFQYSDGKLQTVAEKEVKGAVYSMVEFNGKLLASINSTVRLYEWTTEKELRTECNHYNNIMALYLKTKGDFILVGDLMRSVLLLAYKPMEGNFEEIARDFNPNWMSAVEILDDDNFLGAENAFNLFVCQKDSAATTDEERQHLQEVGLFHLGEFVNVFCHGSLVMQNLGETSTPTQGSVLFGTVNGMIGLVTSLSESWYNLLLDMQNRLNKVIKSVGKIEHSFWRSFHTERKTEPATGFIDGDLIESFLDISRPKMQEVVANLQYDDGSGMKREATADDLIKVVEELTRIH
T3 sequence (Q96SW2 whole entry, chain 1 of 2): as the sequence (Q96SW2 whole entry, chain 1 of 2) above
T3 sequence (Q16531 2-1140 limits assumed, chain 2 of 2): as the sequence (Q16531 2-1140 limits assumed, chain 2 of 2) above

B1: iTAG2 (DCD23mut) (designed binder)
chain: PNVLMVHNESHTGEIPLQCEICGFTCEQAGNLLNHIELHSGEIPFKCHLCNYACRRRDAL
notes: Purified iTAG2 protein
**Q.** B1 was tested. Which “fold difference of IC50 against iTAG1” value [1] did it give?
**A.** ~10 fold

**Q.** Does B1 bind [2]?
**A.** no binding (tested: CRBN/DDB1 at 15 uM and iTAG2 at 50 uM)

**Q.** What about the “fold difference of IC50 against iTAG1” value [3] of the same binder?
**A.** ~10 fold

**Q.** And the “fold difference of IC50 against iTAG1” value [4]?
**A.** ~10 fold
